Sequences and labels used below:
B1: Junin virus (JUNV) Z protein (natural protein)
chain: MGNCNGASKSNQPDSSRVTQPAAEFRRVAHSSLYGRYNCKCCWFADTNLITCNDHYLCLRCHQVMLRNSDLCNICWKPLPTTITVPVEPTAPPP

Kd data for 3 molecules are collected here from publication PMC8257661.

The target in this test is Junin virus (JUNV) L protein (Junin virus (JUNV)). Kind of test: MST; […] (20–[…]); […]; 50 mM HEPES pH 7.8, 500 mM NaCl, 1 mM TCEP; […].
By Kd is commonly meant the constant that tells how readily two partners part at equilibrium. As to Z (AA 18–47) peptide of JUNV Z protein, the Kd was determined as 863 nM. The molecule Z (AA 48–78) peptide of JUNV Z protein showed a dissociation constant (Kd) of 1150 nM.

B1 yielded a Kd of 393 nM.
